Values of other authors, collected in article PMC10229114.

How the values were obtained:
[1] = target: SLy1 SAM (Homo sapiens) (UniProt O75995)
[2] = target: SDF-1α (Homo sapiens) (UniProt P48061)

Chain of SLy1 SAM (O75995 252-316): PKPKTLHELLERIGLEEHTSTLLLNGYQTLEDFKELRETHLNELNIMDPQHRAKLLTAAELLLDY
Chain of SDF-1α (P48061 24-88): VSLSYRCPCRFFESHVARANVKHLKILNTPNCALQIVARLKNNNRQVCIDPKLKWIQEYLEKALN

Row | Kd [1] [µM] | Kd [2] [µM] | Substance
1 | 117 |  | SLy1 SAM (from UniProt O75995)
2 |  | 150 | SDF-1α (from UniProt P48061)
